Paper PMC5537068, “Endoglucanase activity at a second site in Pyrococcus furiosus triosephosphate isomerase—Promiscuity or compensation for a metabolic handicap?” (FEBS Open Bio, 2017)

Assays:
[1] = biological target: the molecule itself; assay: AUC; sedimentation velocity, phosphate buffer; data not shown; told in one sentence together with SDS/PAGE and gel filtration
[2] = biological target: the molecule itself; assay: native gel or EMSA; native PAGE at 5, 7.5, 10, 12.5 and 15% acrylamide with HMW markers, Ferguson plot of molecular weight
[3] = biological target: the molecule itself; assay: SDS/PAGE (zymogram); 12% SDS/PAGE under standard conditions, gel copolymerised with CM-cellulose; residual oligomers resist SDS and boiling; bands identified as PfuTIM by in-gel digestion and MALDI-TOF MS
[4] = biological target: the molecule itself; assay: SEC; gel filtration chromatography in phosphate buffer
[5] = biological target: the molecule itself; assay: AUC; sedimentation velocity, Tris buffer; data not shown; told in one sentence together with SDS/PAGE and gel filtration

B1: Pyrococcus furiosus triosephosphate isomerase (PfuTIM) (enzyme, UniProt P62002 1-228, looked up)
chain: MAKLKEPIIAINFKTYIEATGKRALEIAKAAEKVYKETGVTIVVAPQLVDLRMIAESVEIPVFAQHIDPIKPGSHTGHVLPEAVKEAGAVGTLLNHSENRMILADLEAAIRRAEEVGLMTMVCSNNPAVSAAVAALNPDYVAVEPPELIGTGIPVSKAKPEVITNTVELVKKVNPEVKVLCGAGISTGEDVKKAIELGTVGVLLASGVTKAKDPEKAIWDLVSGIIKE
notes: also called TPI; source: E. coli M15[pREP4], purified (Ni-NTA, gel filtration)
- stoichiometry N [1]: 3
- stoichiometry N [2]: 8
- stoichiometry N [3]: 2
- stoichiometry N [4]: 6
- stoichiometry N [5]: 4
